According to doi:10.1101/2024.03.18.585568 (bioRxiv, 2024):

Columns and labels:
[1] = target: T1, apoGAD65 (glutamate decarboxylase GAD65, residues 84-585, purified without added PLP) (human, UniProt Q05329); assay: HDX-MS
[2] = target: T1, apoGAD65 (glutamate decarboxylase …); assay: SPR

T1 sequence (Q05329 84-585): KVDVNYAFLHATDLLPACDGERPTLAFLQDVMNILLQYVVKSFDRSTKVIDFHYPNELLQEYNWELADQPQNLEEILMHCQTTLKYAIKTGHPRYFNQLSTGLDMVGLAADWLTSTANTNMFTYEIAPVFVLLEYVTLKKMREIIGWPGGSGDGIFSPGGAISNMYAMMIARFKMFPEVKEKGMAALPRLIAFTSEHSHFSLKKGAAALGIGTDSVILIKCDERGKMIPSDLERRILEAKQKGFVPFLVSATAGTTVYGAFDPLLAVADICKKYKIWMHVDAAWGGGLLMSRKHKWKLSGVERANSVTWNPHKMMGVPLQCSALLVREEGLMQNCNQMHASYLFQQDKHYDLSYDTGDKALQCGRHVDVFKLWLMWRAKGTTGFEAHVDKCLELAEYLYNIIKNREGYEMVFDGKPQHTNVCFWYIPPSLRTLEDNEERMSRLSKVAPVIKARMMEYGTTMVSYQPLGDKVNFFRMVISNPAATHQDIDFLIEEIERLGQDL

Binder	binding result [1]	binding result [2]
b96.11 Fab (recombinant Fab based on the human APS-2-associated autoantibody b96.11) (Fab, V domains shown) VH: EVQLVESGGGLVQPGRSLRLSCSASGFTFGDYAMSWFRLAPGKGLEWVGLIKSRAIDGTPQYAASVKGRFTISRDDSNSIAYLQMNSLTTEDTAIYYCARDFYDFWNEFSHRTFDFWGQGTLVTVSS VL: QSALTQPASASGSPGQSVTITCTGSSSDVGGYKYVSWYQHHPGKAPKLMIYEVSKRPSGVPDRFSGSKSGNMASLTVSGLQAEDEADYYCSSYAGSYNFYVFGNGTKVTVL	binds	
b96.11 IgG (purified monoclonal b96.11 IgG antibody) (antibody, V domains shown) VH: EVQLVESGGGLVQPGRSLRLSCSASGFTFGDYAMSWFRLAPGKGLEWVGLIKSRAIDGTPQYAASVKGRFTISRDDSNSIAYLQMNSLTTEDTAIYYCARDFYDFWNEFSHRTFDFWGQGTLVTVSS VL: QSALTQPASASGSPGQSVTITCTGSSSDVGGYKYVSWYQHHPGKAPKLMIYEVSKRPSGVPDRFSGSKSGNMASLTVSGLQAEDEADYYCSSYAGSYNFYVFGNGTKVTVL		binds
